# Results reported in patent US20170362286A1.
# No end group written: not given here.
# Target: mKv1.3 (murine voltage-gated potassium channel Kv1.3) (mouse) (UniProt P16390)
# Experiment: cell-based or functional assay
# Chain of mKv1.3 (murine voltage-gated potassium channel Kv1.3) (mouse) (P16390 whole entry): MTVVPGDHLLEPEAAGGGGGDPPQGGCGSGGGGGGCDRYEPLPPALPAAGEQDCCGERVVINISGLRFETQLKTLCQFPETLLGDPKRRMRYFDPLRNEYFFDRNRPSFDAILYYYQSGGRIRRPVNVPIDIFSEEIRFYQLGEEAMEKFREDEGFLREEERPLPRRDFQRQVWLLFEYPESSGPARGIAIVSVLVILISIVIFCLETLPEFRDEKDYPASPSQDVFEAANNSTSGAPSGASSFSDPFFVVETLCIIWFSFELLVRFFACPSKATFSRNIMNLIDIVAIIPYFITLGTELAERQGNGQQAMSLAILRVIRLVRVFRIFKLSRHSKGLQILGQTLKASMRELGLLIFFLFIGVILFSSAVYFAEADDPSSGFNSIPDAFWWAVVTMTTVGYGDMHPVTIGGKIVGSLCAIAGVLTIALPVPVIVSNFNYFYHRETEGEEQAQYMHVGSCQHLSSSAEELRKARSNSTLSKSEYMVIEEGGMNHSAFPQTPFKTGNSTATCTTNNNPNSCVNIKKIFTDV
binder,measurement,value
EWSSRSCIDTIPKSRCTAFQCKHSMKYRLSFCRKTCGTC (not fully specified; ends and bridges not checked) [[EWSS]ShK],"IC50, potency against Kv1.3 channels (patch clamp)",0.033 nM
same,"Selectivity (for Kv1.3 over Kv1.1, ratio of IC50s)",158 fold
